The data set is described as follows: protein stability index of a GFP-peptide fusion (GPS, HEK-293T) (PSI 1-6); higher = more stable.
The mark [1] stands for this setting: treatment: DMSO, c terminus: a fixed tail appended.
Where [2] appears, read: treatment: MLN4924 1 uM, 8 h, c terminus: a fixed tail appended.
The mark [3] stands for this setting: treatment: DMSO, c terminus: native.
The mark [4] stands for this setting: treatment: MLN4924 1 uM, 8 h, c terminus: native.

± gives the standard deviation.
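Further: 24-mer peptide tiles fused after GFP, lentivirally expressed, FACS-sorted into six equal bins by GFP/DsRed ratio, decoded by Illumina sequencing, PSI is the read-weighted mean bin number.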

For QPIRGVEGSDYINASFIDGYRQQK [PTPRD], the protein stability index amounted to 4.31 ± 0.27 under setting [1] and 4.37 ± 0.19 under setting [2].

Turning to QQELRELRRELELLGRERDRVQVE [PRPH], the protein stability index by setting is: under setting [1], 4.06 ± 0.52; under setting [2], 4.39 ± 0.29.

As for QQFKQYSRHVTTRAALTYTSLEIT [M1AP], the protein stability index is, setting by setting: under setting [1], 2.44 ± 0.18; under setting [2], 2.6 ± 0.3.

For QQNIPSTLLQDHENQRLFEMLGRK [WAS], the protein stability index is, setting by setting: under setting [1], 4.32 ± 0.17; under setting [2], 4.25 ± 0.24.

Regarding QQQQLTFTAALEHCRENAHDKIRP [SPACA9], the protein stability index under setting [1] amounted to 4.1 ± 0.22 and the protein stability index under setting [2] was found to be 4.03 ± 0.16.

The sequence QQWFPSLELGHWLYQTELVENECY [TOR1AIP2] yielded a protein stability index under setting [1] of 2.55 ± 0.54 and a protein stability index under setting [2] of 2.34 ± 0.47.

In turn, QRLIVGNSALKDKEDQFGRTPLMY [INVS] returned a protein stability index under setting [1] of 3.05 ± 0.31 and a protein stability index under setting [2] of 3.31 ± 0.35.

For QSDTLEQREEHELVHVMERSLSPS [RAD54B], the protein stability index runs as follows: under setting [1], 5.45 ± 0.26; under setting [2], 5.33 ± 0.23.

For QSNYDTKGKTAVDTVFRFDPRYNK [KLHL13], the protein stability index came to 3.49 ± 0.23 under setting [1] and 4.17 ± 0.22 under setting [2].

With QTPTKEELDAIIEEVDEDGSGTID [TNNC2], the protein stability index is, setting by setting: under setting [1], 5.67 ± 0.44; under setting [2], 5.16 ± 0.28.

As for QTSSSSSQSETSSAVSTPSPVTRT [DLC1], the protein stability index is 5.45 ± 0.22 under setting [1] and 5.28 ± 0.38 under setting [2].

Consider QVPRSPVIKISYSTPQGKGEVVKI [PWWP2B], for which the protein stability index by setting is: under setting [1], 2.73 ± 0.26; under setting [2], 2.58 ± 0.26.

Turning to QWLVSQLSAASPDTGHDSDKSDQS [TRAF3IP2], the protein stability index runs as follows: under setting [1], 4.66 ± 0.16; under setting [2], 4.73 ± 0.47.

QYNRSSNSNGGNLNSPPGPHSAKT [CDC14A]: the protein stability index runs as follows: under setting [1], 4.42 ± 0.19; under setting [2], 4.33 ± 0.29.

Consider RALNSVPVIIAAVGTRQNEELPCT [RHOBTB3], for which the protein stability index reads like this: under setting [1], 3.39 ± 0.24; under setting [2], 3.46 ± 0.16.

Take RAPKVLGTTLVVGLLAGVGYFAFM [GDAP1]: the protein stability index turned out to be 3.66 ± 0.29 under setting [1] and 3.17 ± 0.27 under setting [2].

Take RCGKHFGTILNYLRDGAVPLPESR [KCTD10]: the protein stability index by setting is: under setting [1], 2.27 ± 0.3; under setting [2], 2.38 ± 0.32.

In the case of RCLIWGRKPKVIECSYTSADGQRH [DHCR7], the protein stability index is, setting by setting: under setting [1], 2.61 ± 0.33; under setting [2], 2.77 ± 0.33.

On to RDAAIKKLATEAGVEVIVRISHTL [CRY1], for which the protein stability index is 2.83 ± 0.92 under setting [1] and 2.62 ± 0.68 under setting [2].

Sequence RDAKAAMAGRLMIRKLVAEKLNIP [AASDHPPT] yielded a protein stability index under setting [1] of 2.62 ± 0.28 and a protein stability index under setting [2] of 2.79 ± 0.36.

With RDEVRFFKGNKYWAVQGQNVLHGY [MMP1], the protein stability index is, setting by setting: under setting [1], 2.35 ± 0.22; under setting [2], 2.51 ± 0.14.

With RDGLAEDLAALKQRLEEETRKRED [PRPH], the protein stability index stood at 5.33 ± 0.33 under setting [1] and 5.25 ± 0.27 under setting [2].

For the sequence RDLEKQKEEVRAALEQREQDAVDQ [TRIM29], the protein stability index by setting is: under setting [1], 5.59 ± 0.08; under setting [2], 5.66 ± 0.22.

On to RDVPESPQHAADTPKSGEPRVPEE [YJU2B], for which the protein stability index reads like this: under setting [1], 5.44 ± 0.19; under setting [2], 5.53 ± 0.24.

As to RDYKIQASRTWCFYNTEDIKDWED [PTGFR], the protein stability index is, setting by setting: under setting [1], 3.28 ± 0.36; under setting [2], 3.68 ± 0.49.

With REEEEQVRAHAPRGNAPPRGKGL [KCNG1], the protein stability index runs as follows: under setting [3], 3.15 ± 1.3; under setting [4], 3.68 ± 0.65.

Regarding REERLRRENEELSARYLSQCQEAE [FBF1], the protein stability index was determined as 5.26 ± 0.29 under setting [1] and 4.97 ± 0.54 under setting [2].

As to REIKVTLVFEHVDQDLRTYLDKAP [CDK4], the protein stability index reads like this: under setting [1], 2.65 ± 0.56; under setting [2], 2.68 ± 0.72.

Take REIQPTAILSLDQIKAIRGSNEYT [SPRY1]: the protein stability index runs as follows: under setting [1], 3.99 ± 0.29; under setting [2], 4.02 ± 0.14.

As to RERPLNVFCDMETDGGGWLVFQRR [TNXB], the protein stability index was determined as 3 ± 0.98 under setting [1] and 2.79 ± 0.48 under setting [2].

RERQRRLEVEREAEKKREAKQRAK [LRRC59]: the protein stability index runs as follows: under setting [1], 5.22 ± 0.29; under setting [2], 5.43 ± 0.06.

As for RFLRAYREGALRAALQRSLAAALA [TRADD], the protein stability index is, setting by setting: under setting [1], 2.27 ± 0.062; under setting [2], 2.32 ± 0.18.

Consider RFPESHLPIQTPGAFLRTCLLSSN [TLE6], for which the protein stability index is 2.71 ± 0.14 under setting [1] and 2.6 ± 0.26 under setting [2].

Take RGCGGTDIELDAARGDAVCTACGS [BRF1]: the protein stability index runs as follows: under setting [1], 4.9 ± 0.24; under setting [2], 4.75 ± 0.26.

As for RGLGSQASTVTEIVKQQDPLVYKA [ACSBG2], the protein stability index amounted to 4.32 ± 0.041 under setting [1] and 4.31 ± 0.52 under setting [2].

Take RGLRGEPGPQGSAGQRGEPGPKGD [EMID1]: the protein stability index under setting [1] is 5.19 ± 0.4 and the protein stability index under setting [2] was 5.41 ± 0.6.

Consider RGMATKLLARPGTGEHREFKLDKK [FBF1], for which the protein stability index is, setting by setting: under setting [1], 4.47 ± 0.33; under setting [2], 4.62 ± 0.13.

On to RGTHAVVGVATARAPLHSVGYTAL [SPSB4], for which the protein stability index runs as follows: under setting [1], 2.68 ± 0.27; under setting [2], 2.63 ± 0.41.

RHAQTISGHALRILIVDWDVHHGN [HDAC6] came in with a protein stability index under setting [1] of 2.18 ± 0.18 and a protein stability index under setting [2] of 2.34 ± 0.4.

With RHCKKYWLISEEEKTQKNQCWKSL [FBXO3], the protein stability index worked out at 2.5 ± 0.35 under setting [1] and 2.96 ± 0.4 under setting [2].

Take RIRAILSTYRKRTPVMEGYVEVKE [LOXL2]: the protein stability index reads like this: under setting [1], 2.62 ± 0.35; under setting [2], 2.67 ± 0.38.

As for RIRSQIGNTESELKKLAEENPDLQ [GDAP1], the protein stability index is, setting by setting: under setting [1], 5.42 ± 0.18; under setting [2], 5.39 ± 0.12.

Regarding RLENRYEALAKQVASEMRFVQDLV [DAPK3], the protein stability index by setting is: under setting [1], 2.5 ± 0.16; under setting [2], 2.45 ± 0.25.

Turning to RLHLAFKRQVPTEQAQAYAERLGV [RAB40B], the protein stability index reads like this: under setting [1], 3.13 ± 0.2; under setting [2], 3.1 ± 0.26.

As to RLNFQTPGMASHPPIPILELADHI [PTPRD], the protein stability index was found to be 3.23 ± 0.2 under setting [1] and 3.08 ± 0.087 under setting [2].

On to RLTQYMDGSGMPKTMQSEETRVWH [CAMK2D], for which the protein stability index under setting [1] stood at 3.44 ± 0.47 and the protein stability index under setting [2] came to 3.51 ± 0.19.

Turning to RLTREVEATRRALIDRMVNLHQA [DDIT3], the protein stability index was 3.44 ± 0.073 under setting [3] and 3.83 ± 0.32 under setting [4].

For RLVLCMELANGKPQTRSGPECGLA [ADAMTSL2], the protein stability index under setting [2] was found to be 2.22 ± 0.53.

With RLWHTACASDEGEVIVFGGCANNL [KLHDC2], the protein stability index by setting is: under setting [1], 2.75 ± 0.34; under setting [2], 2.89 ± 0.44.

As for RNLGKVVHYAKVQLRFQHSQDVSD [PLEKHN1], the protein stability index was found to be 2.49 ± 0.44 under setting [1] and 2.6 ± 0.33 under setting [2].

Regarding RPLGIRAGPNGTLFVADAYKGLFE [APMAP], the protein stability index stood at 2.66 ± 0.27 under setting [1] and 2.61 ± 0.44 under setting [2].

For RPSLVIHLRIHTGEKPYKCTHCSK [ZNF449], the protein stability index turned out to be 2.51 ± 0.49 under setting [1] and 2.31 ± 0.54 under setting [2].

Regarding RQLLCLIDYYESKIRKIHTQRQYK [CEP70], the protein stability index reads like this: under setting [1], 2.44 ± 0.37; under setting [2], 2.95 ± 0.25.

In the case of RQPRDELERVRVSCTIIFLASIFQ [TMEM175], the protein stability index reads like this: under setting [1], 2.11 ± 0.15; under setting [2], 2.17 ± 0.28.

On to RRDAETWFLSKTEELNKEVASNSE [KRT16], for which the protein stability index runs as follows: under setting [1], 5.09 ± 0.35; under setting [2], 5.19 ± 0.12.

RRGSWRLPYTDGLSWELLDSHLGG [CTBP1-DT]: the protein stability index under setting [1] was determined as 2.09 ± 0.09 and the protein stability index under setting [2] was 2.66 ± 0.26.

On to RRQTSMTDFYHSKRRLIFSKRKP [CDKN1A], for which the protein stability index runs as follows: under setting [3], 3.33 ± 0.28; under setting [4], 3.71 ± 0.53.

RRYVARLEMRRRCTWSIFQSIEYA [PPEF2]: the protein stability index by setting is: under setting [1], 1.86 ± 0.94; under setting [2], 2.26 ± 0.14.

With RSEAVAQLWGQKKKNSNMTYEKLS [ELF3], the protein stability index was 3.52 ± 0.21 under setting [1] and 3.8 ± 0.18 under setting [2].

In the case of RSRGASQKKQKLEQKAAGSASAKR [FATE1], the protein stability index under setting [1] worked out at 5.07 ± 0.27 and the protein stability index under setting [2] was 5.06 ± 0.31.

RSTNLLAAETASLEEQLQGWGEVM [ARL6IP1]: the protein stability index runs as follows: under setting [1], 3.85 ± 0.32; under setting [2], 4.15 ± 0.23.

RTKQVLHTFKTRFTQPLLPAFTVW [FSD1]: the protein stability index runs as follows: under setting [1], 2.53 ± 0.32; under setting [2], 2.44 ± 0.46.

The sequence RTTVFQYPVGWPPVQELPPSLRAP [ZMAT5] returned a protein stability index under setting [1] of 2.8 ± 0.17 and a protein stability index under setting [2] of 2.79 ± 0.29.

For RVPLGRLELLEEVLALGLRTDVGI [RSAD1], the protein stability index by setting is: under setting [1], 2.1 ± 0.44; under setting [2], 2.15 ± 0.31.

As for RYWRSLRVMKVEDREGPSSSKLVT [HDAC6], the protein stability index stood at 2.79 ± 0.22 under setting [1] and 3.07 ± 0.44 under setting [2].

SAAIHISETLEQKPHFESSTVKTE [EPB41L3]: the protein stability index reads like this: under setting [1], 4.92 ± 0.66; under setting [2], 5.06 ± 0.52.

For SAESQGLDGAGLMGFVPHNGSLYG [ADAMTSL2], under setting [2], the protein stability index amounted to 3.47 ± 1.6.

As to SAFGNVKLVVHDCPVWDIFDSDWY [RHOBTB3], the protein stability index is, setting by setting: under setting [1], 2.17 ± 0.33; under setting [2], 2.2 ± 0.12.

With SAGGHGGLLNDTSAPHLENSGHTI [KCNA4], the protein stability index under setting [1] came to 4.21 ± 0.46 and the protein stability index under setting [2] was 4.48 ± 0.2.

In the case of SAGKRGPDRGSPEYRQRRERNNIA [CEBPD], the protein stability index runs as follows: under setting [1], 4.61 ± 0.2; under setting [2], 4.41 ± 0.039.

As for SAGNRTHKARTRPKARKQGVSPAD [ADAMTSL2], the protein stability index is, setting by setting: under setting [1], 4.75 ± 0.94; under setting [2], 5.07 ± 0.8.

In the case of SASPIKDQPVMAVKTGEDGSNLDD [FANCE], the protein stability index by setting is: under setting [1], 5.66 ± 0.27; under setting [2], 5.56 ± 0.2.

Source of the values: the supplement of paper PMC10567573.
